Laboratory results: paper doi:10.1101/2024.12.17.628619 (bioRxiv, 2024)
Substitutions are numbered along the chain they refer to. Names may count otherwise. Blank lines part the entries; values can stand above or below the binder they belong to.

Biological target: His6-DDB1 (human, UniProt Q16531 1-1140)
Test: SEC + other: negative stain EM

Chain of His6-DDB1 (Q16531 whole entry): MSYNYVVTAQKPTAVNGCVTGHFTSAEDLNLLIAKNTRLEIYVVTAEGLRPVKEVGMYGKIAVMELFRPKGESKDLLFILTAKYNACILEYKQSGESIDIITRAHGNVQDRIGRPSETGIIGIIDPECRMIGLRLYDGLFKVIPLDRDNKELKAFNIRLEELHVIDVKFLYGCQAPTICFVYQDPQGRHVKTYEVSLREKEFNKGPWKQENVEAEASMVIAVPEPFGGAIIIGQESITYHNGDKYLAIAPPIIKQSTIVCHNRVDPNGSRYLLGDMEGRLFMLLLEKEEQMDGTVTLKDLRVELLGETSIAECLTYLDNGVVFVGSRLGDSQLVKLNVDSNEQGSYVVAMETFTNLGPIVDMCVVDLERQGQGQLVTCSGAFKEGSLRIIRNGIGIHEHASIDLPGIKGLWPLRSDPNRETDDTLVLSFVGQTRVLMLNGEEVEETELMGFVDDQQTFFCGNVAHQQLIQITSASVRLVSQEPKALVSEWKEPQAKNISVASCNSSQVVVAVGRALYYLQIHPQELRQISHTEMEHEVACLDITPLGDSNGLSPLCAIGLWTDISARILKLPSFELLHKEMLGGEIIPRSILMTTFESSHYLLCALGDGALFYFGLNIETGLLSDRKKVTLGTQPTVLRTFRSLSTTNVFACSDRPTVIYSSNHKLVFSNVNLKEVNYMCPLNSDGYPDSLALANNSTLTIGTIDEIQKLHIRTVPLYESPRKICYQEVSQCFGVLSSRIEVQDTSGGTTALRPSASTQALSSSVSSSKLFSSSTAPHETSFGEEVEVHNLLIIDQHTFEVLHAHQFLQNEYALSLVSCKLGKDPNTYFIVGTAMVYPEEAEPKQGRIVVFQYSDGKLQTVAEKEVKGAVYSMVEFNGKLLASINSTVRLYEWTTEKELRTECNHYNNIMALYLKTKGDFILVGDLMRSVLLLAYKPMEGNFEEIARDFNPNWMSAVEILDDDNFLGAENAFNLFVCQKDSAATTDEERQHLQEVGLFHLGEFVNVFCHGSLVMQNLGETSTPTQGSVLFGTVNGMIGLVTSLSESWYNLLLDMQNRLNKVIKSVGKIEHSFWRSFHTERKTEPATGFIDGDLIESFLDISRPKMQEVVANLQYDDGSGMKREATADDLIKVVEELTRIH

binding result: binds
B1: MBP-AMBRA1^WD40 (residues M1-N204 directly fused to S853-G1044), wild type (domain or fragment, human, UniProt Q9C0C7 1-204, looked up)
chain: MKVVPEKNAVRILWGRERGARAMGAQRLLQELVEDKTRWMKWEGKRVELPDSPRSTFLLAFSPDRTLLASTHVNHNIYITEVKTGKCVHSLIGHRRTPWCVTFHPTISGLIASGCLDGEVRIWDLHGGSESWFTDSNNAIASLAFHPTAQLLLIATANEIHFWDWSRREPFAVVKTASEMERVRLVRFDPLGHYLLTAIVNPSNSNIANTTYRLQWWDFTKFDLPEISNASVNVLVQNCKIYNDASCDISADGQLLAAFIPSSQRGFPDEGILAVYSLAPHNLGEMLYTKRFGPNAISVSLSPMGRYVMVGLASRRILLHPSTEHMVAQVFRLQQAHGGETSMRRVFNVLYPMPADQRRHVSINSARWLPEPGLGLAYGTNKGDLVICRPEALNSG

binding result: binds
B2: MBP-AMBRA1^WD40 H75A/R96A (domain or fragment, human, UniProt Q9C0C7 1-204, looked up)
chain: B1 chain with H75A, R96A

Further lines, the binder ahead of its results:

B3: MBP-AMBRA1^WD40 F57A (domain or fragment, human, UniProt Q9C0C7 1-204, looked up)
chain: B1 chain with F57A
binding result: binds

B4: MBP-AMBRA1^WD40 W99R (domain or fragment, human, UniProt Q9C0C7 1-204, looked up)
chain: B1 chain with W99R
binding result: binds
